Drawing on US10766960 (dated 2020), this text covers Kd for six molecules.

The target of one experiment is T1, FcgRIIb (human, UniProt P31994).
T1 chain: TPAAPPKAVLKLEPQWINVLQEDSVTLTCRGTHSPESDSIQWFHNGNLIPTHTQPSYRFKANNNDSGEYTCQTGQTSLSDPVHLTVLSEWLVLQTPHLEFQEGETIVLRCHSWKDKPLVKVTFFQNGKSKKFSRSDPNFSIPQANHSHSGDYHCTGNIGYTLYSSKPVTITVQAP
As to the kind of experiment: SPR.

For the next experiment, the target named is FcgRIIIa F (human, UniProt P08637). The experiment can be described thus: SPR.
Sequence of FcgRIIIa F (P08637 17-208): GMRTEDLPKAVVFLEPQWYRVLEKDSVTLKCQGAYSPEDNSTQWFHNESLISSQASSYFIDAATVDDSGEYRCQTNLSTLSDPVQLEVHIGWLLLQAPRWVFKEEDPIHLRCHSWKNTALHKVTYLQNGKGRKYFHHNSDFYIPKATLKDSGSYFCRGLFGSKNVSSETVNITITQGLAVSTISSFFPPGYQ

B1: GpH7-TA7/GpH7-B3/GpL16-k0 (antibody)
chain 1: QVQLVQSGAEVKKPGASVTVSCKASGYTFTDYEMHWIRQPPGEGLEWIGAIDPKTGDTAYSESFQDRVTLTADKSTSTAYMELSSLTSEDTAVYYCTRFYSYTYWGQGTLVTVSSASTKGPSVFPLAPSSKSTSGGTAALGCLVKDYFPEPVTVSWNSGALTSGVHTFPAVLQSSGLYSLSSVVTVPSSSLGTQTYICNVNHKPSNTKVDKKVEPKSCDKTHTCPPCPAPEYLWGPSVFLFPPKPKDTLMISRTPEVTCVVVDVSHEDPEVKFNWYVDGVEVHNAKTKPREEQYNATYRVVSVLTVLHQDWLNGKEYKCKVSNKALPAPIEKTISKAKGQPREPQVYTLPPSRKELTKNQVSLTCLVKGFYPSDIAVEWESNGQPENNYKTTPPVLDSDGSFFLYSKLTVDKSRWQQGNVFSCSVMHEALHNRYTQKSLSLSP
chain 2: not shown
chain 3: DIVMTQSPLSLPVTPGEPASISCQASESLVHSNRNTYLHWYLQKPGQSPQLLIYKVSNRFSGVPDRFSGSGSGTDFTLKISRVEAEDVGVYYCSQNTHVPPTFGQGTKVEIERTVAAPSVFIFPPSDEQLKSGTASVVCLLNNFYPREAKVQWKVDNALQSGNSQESVTEQDSKDSTYSLSSTLTLSKADYEKHKVYACEVTHQGLSSPVTKSFNRGEC
Consider B1, for which the dissociation constant Kd with FcgRIIb is 4500 nM; in the experiment with FcgRIIIa F, 320 nM.

B2: GpH7-A5/GpH7-B3/GpL16-k0 (antibody)
chain 1: not shown
chain 2: not shown
chain 3: DIVMTQSPLSLPVTPGEPASISCQASESLVHSNRNTYLHWYLQKPGQSPQLLIYKVSNRFSGVPDRFSGSGSGTDFTLKISRVEAEDVGVYYCSQNTHVPPTFGQGTKVEIERTVAAPSVFIFPPSDEQLKSGTASVVCLLNNFYPREAKVQWKVDNALQSGNSQESVTEQDSKDSTYSLSSTLTLSKADYEKHKVYACEVTHQGLSSPVTKSFNRGEC
Consider B2, for which the dissociation constant Kd with FcgRIIb is 3100 nM; with FcgRIIIa F, 1600 nM.

B3: GpH7-TA7/GpH7-TA45/GpL16-k0 (antibody)
chain 1: QVQLVQSGAEVKKPGASVTVSCKASGYTFTDYEMHWIRQPPGEGLEWIGAIDPKTGDTAYSESFQDRVTLTADKSTSTAYMELSSLTSEDTAVYYCTRFYSYTYWGQGTLVTVSSASTKGPSVFPLAPSSKSTSGGTAALGCLVKDYFPEPVTVSWNSGALTSGVHTFPAVLQSSGLYSLSSVVTVPSSSLGTQTYICNVNHKPSNTKVDKKVEPKSCDKTHTCPPCPAPEYLWGPSVFLFPPKPKDTLMISRTPEVTCVVVDVSHEDPEVKFNWYVDGVEVHNAKTKPREEQYNATYRVVSVLTVLHQDWLNGKEYKCKVSNKALPAPIEKTISKAKGQPREPQVYTLPPSRKELTKNQVSLTCLVKGFYPSDIAVEWESNGQPENNYKTTPPVLDSDGSFFLYSKLTVDKSRWQQGNVFSCSVMHEALHNRYTQKSLSLSP
chain 2: QVQLVQSGAEVKKPGASVTVSCKASGYTFTDYEMHWIRQPPGEGLEWIGAIDPKTGDTAYSESFQDRVTLTADKSTSTAYMELSSLTSEDTAVYYCTRFYSYTYWGQGTLVTVSSASTKGPSVFPLAPSSKSTSGGTAALGCLVKDYFPEPVTVSWNSGALTSGVHTFPAVLQSSGLYSLSSVVTVPSSSLGTQTYICNVNHKPSNTKVDKKVEPKSCDKTHTCPPCPAPEYLWGPSVFLFPPKPKDTLMISRTPEVTCVVVDVSHEDPEVKFNWYVDGVEVHNAKTKPREEQYNATYRVVSVLTVLHQDWLNGKEYKCKVSNKALPAPIEKTISKAKGQPREPQVYTLPPSRDELTKNQVSLTCLVKGFYPSDIAVEWESNGQPENNYKTTPPVLDSDGSFFLYSKLTVDKSRWQQGNVFSCSVMHEALHNHYTQESLSLSP
chain 3: DIVMTQSPLSLPVTPGEPASISCQASESLVHSNRNTYLHWYLQKPGQSPQLLIYKVSNRFSGVPDRFSGSGSGTDFTLKISRVEAEDVGVYYCSQNTHVPPTFGQGTKVEIERTVAAPSVFIFPPSDEQLKSGTASVVCLLNNFYPREAKVQWKVDNALQSGNSQESVTEQDSKDSTYSLSSTLTLSKADYEKHKVYACEVTHQGLSSPVTKSFNRGEC
B3: the dissociation constant (Kd) with FcgRIIb was 18000 nM; in the experiment with FcgRIIIa F, 3300 nM.

B4: GpH7-A5/GpH7-B78/GpL16-k0 (antibody)
chain 1: not shown
chain 2: QVQLVQSGAEVKKPGASVTVSCKASGYTFTDYEMHWIRQPPGEGLEWIGAIDPKTGDTAYSESFQDRVTLTADKSTSTAYMELSSLTSEDTAVYYCTRFYSYTYWGQGTLVTVSSASTKGPSVFPLAPSSKSTSGGTAALGCLVKDYFPEPVTVSWNSGALTSGVHTFPAVLQSSGLYSLSSVVTVPSSSLGTQTYICNVNHKPSNTKVDKKVEPKSCDKTHTCPPCPAPELLGGPDVFLFPPKPKDTLMISRTPEVTCVVVDVSHEDPEVKFNWYVDGVEVHNAKTKPREEQYNSTYRVVSVLTVLHQDWLNGKEYKCKVSNKALPLPEEKTISKAKGQPREPQVYTLPPSRDELTKNQVSLTCLVKGFYPSDIAVEWESNGQPENNYKTTPPVLDSDGSFFLYSKLTVDKSRWQQGNVFSCSVMHEALHNHYTQESLSLSP
chain 3: DIVMTQSPLSLPVTPGEPASISCQASESLVHSNRNTYLHWYLQKPGQSPQLLIYKVSNRFSGVPDRFSGSGSGTDFTLKISRVEAEDVGVYYCSQNTHVPPTFGQGTKVEIERTVAAPSVFIFPPSDEQLKSGTASVVCLLNNFYPREAKVQWKVDNALQSGNSQESVTEQDSKDSTYSLSSTLTLSKADYEKHKVYACEVTHQGLSSPVTKSFNRGEC
Regarding B4, the equilibrium dissociation constant (Kd) in the experiment with FcgRIIb came to 430 nM; in the experiment with FcgRIIIa F, 54 nM.

B5: GpH7-G1d/GpL16-k0 (antibody)
chain 1: not shown
chain 2: DIVMTQSPLSLPVTPGEPASISCQASESLVHSNRNTYLHWYLQKPGQSPQLLIYKVSNRFSGVPDRFSGSGSGTDFTLKISRVEAEDVGVYYCSQNTHVPPTFGQGTKVEIERTVAAPSVFIFPPSDEQLKSGTASVVCLLNNFYPREAKVQWKVDNALQSGNSQESVTEQDSKDSTYSLSSTLTLSKADYEKHKVYACEVTHQGLSSPVTKSFNRGEC
Regarding B5, the Kd turned out to be 3100 nM in the experiment with FcgRIIb and 1200 nM in the experiment with FcgRIIIa F.

B6: GpH7-A57/GpH7-B78/GpL16-k0 (antibody)
chain 1: QVQLVQSGAEVKKPGASVTVSCKASGYTFTDYEMHWIRQPPGEGLEWIGAIDPKTGDTAYSESFQDRVTLTADKSTSTAYMELSSLTSEDTAVYYCTRFYSYTYWGQGTLVTVSSASTKGPSVFPLAPSSKSTSGGTAALGCLVKDYFPEPVTVSWNSGALTSGVHTFPAVLQSSGLYSLSSVVTVPSSSLGTQTYICNVNHKPSNTKVDKKVEPKSCDKTHTCPPCPAPELLGGPDVFLFPPKPKDTLMISRTPEVTCVVVDVSHEDPEVKFNWYVDGVEVHNAKTKPREEQYNSTYRVVSVLTVLHQDWLNGKEYKCKVSNKALPLPEEKTISKAKGQPREPQVYTLPPSRKELTKNQVSLTCLVKGFYPSDIAVEWESNGQPENNYKTTPPVLDSDGSFFLYSKLTVDKSRWQQGNVFSCSVMHEALHNRYTQKSLSLSP
chain 2: QVQLVQSGAEVKKPGASVTVSCKASGYTFTDYEMHWIRQPPGEGLEWIGAIDPKTGDTAYSESFQDRVTLTADKSTSTAYMELSSLTSEDTAVYYCTRFYSYTYWGQGTLVTVSSASTKGPSVFPLAPSSKSTSGGTAALGCLVKDYFPEPVTVSWNSGALTSGVHTFPAVLQSSGLYSLSSVVTVPSSSLGTQTYICNVNHKPSNTKVDKKVEPKSCDKTHTCPPCPAPELLGGPDVFLFPPKPKDTLMISRTPEVTCVVVDVSHEDPEVKFNWYVDGVEVHNAKTKPREEQYNSTYRVVSVLTVLHQDWLNGKEYKCKVSNKALPLPEEKTISKAKGQPREPQVYTLPPSRDELTKNQVSLTCLVKGFYPSDIAVEWESNGQPENNYKTTPPVLDSDGSFFLYSKLTVDKSRWQQGNVFSCSVMHEALHNHYTQESLSLSP
chain 3: DIVMTQSPLSLPVTPGEPASISCQASESLVHSNRNTYLHWYLQKPGQSPQLLIYKVSNRFSGVPDRFSGSGSGTDFTLKISRVEAEDVGVYYCSQNTHVPPTFGQGTKVEIERTVAAPSVFIFPPSDEQLKSGTASVVCLLNNFYPREAKVQWKVDNALQSGNSQESVTEQDSKDSTYSLSSTLTLSKADYEKHKVYACEVTHQGLSSPVTKSFNRGEC
For the molecule B6, the equilibrium dissociation constant (Kd) came out at 610 nM with FcgRIIb and 6.2 nM with FcgRIIIa F.
